The results in this text go back to article doi:10.1101/2025.09.26.678709, “MRAP2 potentiates GPCR signaling by conserved mechanisms that are disrupted by obesity-associated genetic variants” (bioRxiv, 2025).

Holding throughout (conditions): partners not purified
The target in one test is T1, HA-Halo-MRAP2 (human, UniProt Q96G30 1-205, CA-Sulfo646 dye on the Halo tag).
T1 construct: melanocortin receptor-2 accessory protein-2 (MRAP2), human; N-terminal signal peptide from rat mGluR2 in the construct; also called melanocortin receptor-2 accessory protein-2; source: HEK293, transfected, in lysate (LMNG-CHS); not shown: HA, N-terminal, kept; Halo, N-terminal, kept
T1 sequence (looked up): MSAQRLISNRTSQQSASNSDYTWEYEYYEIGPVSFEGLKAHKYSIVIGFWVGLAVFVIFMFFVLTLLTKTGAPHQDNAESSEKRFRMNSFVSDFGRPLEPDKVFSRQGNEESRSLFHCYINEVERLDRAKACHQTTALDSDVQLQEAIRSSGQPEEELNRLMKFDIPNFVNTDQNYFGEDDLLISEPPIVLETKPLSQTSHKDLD
The test is described as follows: single-molecule pull-down (SiMPull) with photobleaching step counting; two-color: HA-Halo protein (CA-Sulfo646) and FLAG-CLIP protein (BC-DY547) co-expressed in HEK293 (300 ng Halo and 600 ng CLIP plasmid), lysed in 0.5% LMNG/0.05% CHS, captured by biotinylated anti-HA antibody, co-localized spots analysed by TIRF; also reanalysed for monomeric against oligomeric GPCR.

The target in another test is T2, HA-Halo-GHSR (human, UniProt Q92847 1-366, CA-Sulfo646 dye on the Halo tag).
T2 construct: growth hormone secretagogue receptor-1a (GHSR), human; N-terminal signal peptide from rat mGluR2 precedes the HA tag in the construct (pRK5 vector); also called ss-HA-Halo-GHSR; growth hormone secretagogue receptor-1a; source: HEK293, transfected, in lysate (LMNG-CHS); not shown: HA, N-terminal, kept; Halo, N-terminal, kept
The description is as above.

A further test deals with T3, HA-Halo-MC4R (human, UniProt P32245 1-332, CA-Sulfo646 dye on the Halo tag).
T3 construct: melanocortin receptor-4 (MC4R), human; N-terminal signal peptide from rat mGluR2 in the construct; also called melanocortin receptor 4; source: HEK293, transfected, in lysate (LMNG-CHS); not shown: HA, N-terminal, kept; Halo, N-terminal, kept
T3 sequence (P32245 whole entry): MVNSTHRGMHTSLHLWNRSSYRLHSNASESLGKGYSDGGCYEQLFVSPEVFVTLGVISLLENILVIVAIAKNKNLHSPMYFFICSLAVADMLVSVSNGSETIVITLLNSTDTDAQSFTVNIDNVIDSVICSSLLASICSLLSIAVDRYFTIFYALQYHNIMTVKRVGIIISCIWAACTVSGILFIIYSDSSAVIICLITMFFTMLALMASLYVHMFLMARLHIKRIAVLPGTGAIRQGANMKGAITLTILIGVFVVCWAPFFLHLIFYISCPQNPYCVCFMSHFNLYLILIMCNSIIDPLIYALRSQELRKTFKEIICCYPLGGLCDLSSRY
The description is as above.

For a further test, the target named is T4, GHSR-LgC (UniProt Q92847 1-366).
T4 construct: GHSR cloned into the LgBiT-C plasmid (Promega); also called GHSR with LgBiT at the C-terminus; source: HEK293, transfected, in cells; not shown: LgBiT, C-terminal, kept
The test is described as follows: split reporter (BiFC, NanoBiT); HEK293 cells transfected with 100 ng GHSR-LgC and MRAP2-SmC, 48 h, Nano-Glo substrate, 37°C; normalised to cells with LgC-empty and SmC-empty.

B1: FLAG-CLIP-GHSR (receptor, human, UniProt Q92847 1-366, looked up)
chain: MWNATPSEEPGFNLTLADLDWDASPGNDSLGDELLQLFPAPLLAGVTATCVALFVVGIAGNLLTMLVVSRFRELRTTTNLYLSSMAFSDLLIFLCMPLDLVRLWQYRPWNFGDLLCKLFQFVSESCTYATVLTITALSVERYFAICFPLRAKVVVTKGRVKLVIFVIWAVAFCSAGPIFVLVGVEHENGTDPWDTNECRPTEFAVRSGLLTVMVWVSSIFFFLPVFCLTVLYSLIGRKLWRRRRGDAVVGASLRDQNHKQTVKMLAVVVFAFILCWLPFHVGRYLFSKSFEPGSLEIAQISQYCNLVSFVLFYLSAAINPILYNIMSKKYRVAVFRLLGFEPFSQRKLSTLKDESSRAWTESSINT
modifications: BC-DY547 dye on the CLIP tag
notes: growth hormone secretagogue receptor-1a (GHSR), human; N-terminal signal peptide from rat mGluR2 precedes the FLAG tag in the construct (pRK5 vector); also called ss-FLAG-CLIP-GHSR; source: HEK293, transfected, in lysate (LMNG-CHS); not shown: CLIP, N-terminal, kept
For B1, in the test with HA-Halo-MRAP2, the “percent of co-localized spots with 2-step bleaching for MRAP2” value worked out at 22% and the “stoichiometry N” value worked out at 1 MRAP2 per GHSR.

B2: FLAG-CLIP-MRAP2 (natural protein, human, UniProt Q96G30 1-205, looked up)
chain: T1 sequence (looked up)
modifications: BC-DY547 dye on the CLIP tag
notes: melanocortin receptor-2 accessory protein-2 (MRAP2), human; N-terminal signal peptide from rat mGluR2 in the construct; source: HEK293, transfected, in lysate (LMNG-CHS); not shown: CLIP, N-terminal, kept
For the molecule B2, the “percent of co-localized spots with 2-step bleaching for MRAP2” value in the test with HA-Halo-GHSR was 27%; with HA-Halo-MC4R it was 29%. The figures for the “stoichiometry N” value with HA-Halo-GHSR and in the test with HA-Halo-MC4R were 1 MRAP2 per GHSR and 1 MRAP2 per MC4R, respectively.

B3: MRAP2-SmC (natural protein, UniProt Q96G30 1-205, looked up)
chain: T1 sequence (looked up)
notes: MRAP2; printed as MRAP2-SmC in the results and SmC-MRAP2 in the methods; also called SmC-MRAP2; source: HEK293, transfected, in cells
Consider B3, for which the “fold luminescence over negative controls” value in the test with GHSR-LgC came to 400 fold.
